Laboratory results: the supplement of paper PMC10567573

B1: FLOT1 (parent)
chain: QMAKKAEAFQLYQEAAQLDMLLEK
B2: ANKRD44 (parent)
chain: FHCIETLVTTGANVNETDDWGRTA

Variants of: B1
Experiment: protein stability index of a GFP-peptide fusion (GPS, HEK-293T) (PSI 1-6); higher = more stable
Conditions: c terminus: a fixed tail appended
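Further: lentivirally expressed fusions sorted by FACS into six bins by GFP to DsRed ratio, PSI derived from sequencing read proportions per bin multiplied by bin number.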

Protein stability index: each site, then its substitutions
L22: S 2.63 | P 3.9 | N 2.03 | G 3.76 | I 1.72 | A 1.32 | W 1.5 | R 2.42
A8: L 2.55 | E 2.49 | M 2.88 | F 3.96 | H 1.42
L11: D 1.82 | S 2.23 | H 3.32 | F 2.15 | G 1.76 | N 2.1 | I 2.85 | A 2.03 | M 1.59
K24: I 3.41 | Q 2.55 | D 3.76 | V 1.73 | H 2.67 | A 2.53 | T 3.03 | N 2.83 | G 2.89 | C 2.28 | S 3.36 | R 2.13
M2: C 1.61 | E 2.07 | I 1.36 | N 1.92 | Y 2.1 | L 1.84 | S 1.14 | A 1.46 | H 1.57 | G 2.78 | K 2.4
Q17: T 1.19 | L 1.58
E23: H 2.15 | W 1.98 | Y 1.81 | P 3.12 | R 1.39 | D 3.79 | N 2.35 | A 2.29 | T 1.51 | C 2.27 | V 1.98
Y12: P 5.08 | G 4.56 | I 2.62 | D 4.96 | S 4.55
A6: P 2.37 | H 1.99 | V 1.75 | T 1.38 | D 1.57 | Q 1.91
A16: P 4.27 | N 2.45 | L 2.63 | R 3.45 | G 4.14 | Y 1.93 | E 3.98 | T 1.85 | D 3.24
K4: M 1.55 | T 1.15 | H 2.12 | A 1.43 | P 2.3 | C 1.86 | G 2.15 | V 1.47
A15: P 4.27 | T 2.76 | N 2.32 | W 2.68 | K 1.56 | C 2.65 | D 4.62 | Q 1.44 | H 2.2
Q13: K 2.62 | N 3.82 | H 3.6 | L 3.2
A3: P 1.63 | W 1.21 | L 2.63 | Y 2.83 | T 1.16 | I 1.88 | Q 1.93 | F 1.16
L21: K 2.19 | E 2.7 | V 2.35 | M 1.84 | W 1.69 | S 3.46 | P 4.51 | D 2.58 | N 3.38 | A 2.09
K5: L 3.38 | G 1.92 | I 2.49 | R 2.3 | Q 1.59
M20: K 2.55 | D 4.03 | S 3.69 | N 2.47 | I 3.46 | Y 2.08 | P 4.52 | R 2.98
Q1: A 2.01 | I 2.83 | L 2.5 | P 2.05 | E 2.19 | N 1.8 | R 1.69
E7: P 2.07 | A 2.46 | V 1.91 | Y 1.8 | S 4 | H 2.24
L18: K 2.9 | I 2.17 | C 3.66 | P 3.9 | A 1.85 | V 1.85 | Y 1.46 | M 2.22 | D 3.52 | F 2.13
Q10: G 1.72 | P 2.08 | D 2.01 | M 1.52 | A 2.07 | Y 2.59 | T 2.79 | E 2.49 | V 2.87 | R 1.87 | H 2.03
F9: A 2 | I 1.88 | L 2.37 | S 2.01 | W 1.86 | Q 1 | M 1.72
E14: C 2.61 | I 3.03 | G 2.58 | L 1.97 | W 1.96 | Y 2.71
D19: F 1.69 | V 3.13 | E 1.87 | T 2.66 | W 1.34 | S 1.29 | I 1.5 | P 3.95 | Q 1.83 | G 1.48 | K 1.65

Variants of: B2
Experiment: as above
Conditions: c terminus: a fixed tail appended

Protein stability index, by site and new letter:
F1: T 4.25 | Y 2.07 | M 4.54 | L 3.31 | P 4.56 | S 4.04
N13: S 2.39 | Y 1.68 | Q 2.3 | P 2.41 | V 2.61 | R 2.1 | C 1.59
T9: C 1.78 | K 2.83 | H 2.18 | P 2.06 | G 2.7
W20: Q 2.66 | I 2.4 | N 3.23 | H 2.94 | S 3 | P 2.61 | C 2.43
G11: W 2.99 | T 2.29 | S 1.68 | A 1.79 | I 2.62 | R 2.6 | N 2
D18: E 2.09 | M 1.64 | I 1.95 | F 2.21 | Y 2.46 | L 2.81 | K 1.65 | N 2.26
E16: A 1.98 | V 1.64 | T 1.53 | H 2.32 | F 1.86 | I 1.52 | D 2.17 | Y 2.32
R22: F 1.65 | A 2.64 | S 2.71 | L 2.5 | T 2.46
E5: R 1.55 | L 4.06 | P 2.43 | W 2.26 | H 2.76 | C 2.02
G21: I 2.24 | D 2.71 | H 2.32 | N 1.68 | Y 1.92 | R 2.5
T17: K 2.02 | W 2.04 | H 1.83 | D 2.29 | F 2
V8: T 2.29 | G 1.89 | A 2.05 | Y 2.27 | D 3.76 | S 3.12
L7: R 2.66 | I 2.23 | T 2.85 | N 3.08 | M 2.19
H2: C 2.05 | T 3.08 | M 2.64 | S 3.36 | P 3.77
V14: W 1.54 | D 2.26 | P 2.71 | R 2.61 | G 1.86
C3: G 2.89 | E 3.96 | N 2.21 | M 2.31 | Y 2.19 | Q 3.03 | A 1.79 | F 2 | T 2.65 | P 3.36 | V 2.62
I4: V 2.44 | T 2.87 | L 2.65 | C 2.33 | Y 1.9
N15: Q 2.18 | D 2.29 | L 2.21 | G 1.85 | T 3.27 | P 2.34
T23: S 2.31 | Q 2.24 | N 2.17 | L 1.91
A12: H 2.1 | V 1.59 | P 1.81 | Q 2.09 | R 2.33
T6: Q 2.16 | F 2.03 | S 2.71 | A 2.16 | K 1.93 | H 2.52 | P 2.08
A24: F 2.24 | W 1.16 | N 2.03 | Q 2.06 | V 2.01 | G 2.05
D19: Y 2.43 | T 1.88 | R 1.66 | P 2.26 | W 2.44
T10: P 2.36 | L 1.65 | E 2.37 | Y 2.14 | R 2.34 | S 2.08
